Experimental data reported in paper PMC6588657 (2018).

B1: full-length, C-terminal, Flag-tagged human Lnp [human] / Myc-ATL3 [human] (parent complex)
chain 1: MGGLFSRWRTKPSTVEVLESIDKEIQALEEFREKNQRLQKLWVGRLILYSSVLYLFTCLIVYLWYLPDEFTARLAMTLPFFAFPLIIWSIRTVIIFFFSKRTERNNEALDDLKSQRKKILEEVMEKETYKTAKLILERFDPDSKKAKECEPPSAGAAVTARPGQEIRQRTAAQRNLSPTPASPNQGPPPQVPVSPGPPKDSSAPGGPPERTVTPALSSNVLPRHLGSPATSVPGMGLHPPGPPLARPILPRERGALDRIVEYLVGDGPQNRYALICQQCFSHNGMALKEEFEYIAFRCAYCFFLNPARKTRPQAPRLPEFSFEKRQVVEGSSSVGPLPSGSVLSSDNQFNEESLEHDVLDDNTEQTDDKIPATEQTNQVIEKASDSEEPEEKQETENEEASVIETNSTVPGADSIPDPELSGESLTAE
chain 2: MLSPQRVAAAASRGADDAMESSKPGPVQVVLVQKDQHSFELDEKALASILLQDHIRDLDVVVVSVAGAFRKGKSFILDFMLRYLYSQKESGHSNWLGDPEEPLTGFSWRGGSDPETTGIQIWSEVFTVEKPGGKKVAVVLMDTQGAFDSQSTVKDCATIFALSTMTSSVQIYNLSQNIQEDDLQQLQLFTEYGRLAMDEIFQKPFQTLMFLVRDWSFPYEYSYGLQGGMAFLDKRLQVKEHQHEEIQNVRNHIHSCFSDVTCFLLPHPGLQVATSPDFDGKLKDIAGEFKEQLQALIPYVLNPSKLMEKEINGSKVTCRGLLEYFKAYIKIYQGEDLPHPKSMLQATAEANNLAAAASAKDIYYNNMEEVCGGEKPYLSPDILEEKHCEFKQLALDHFKKTKKMGGKDFSFRYQQELEEEIKELYENFCKHNGSKNVFSTFRTPAVLFTGIVALYIASGLTGFIGLEVVAQLFNCMVGLLLIALLTWGYIRYSGQYRELGGAIDFGAAYVLEQASSHIGNSTQATVRDAVVGRPSMDKKAQ

Variants of: B1
Test: co-immunoprecipitation; COS-7 cell lysates containing 1% Triton X-100; anti-Flag antibody-conjugated agarose; band quantification by Image J; parent: 1

Variant	ratio to parent
chain 1 MGGLFSRWRTKPSTVEVLESIDKEDQADEEFREKNQRLQKLWVGRLILYSSVLYLFTCLIVYLWYLPDEFTARLAMTLPFFAFPLIIWSIRTVIIFFFSKRTERNNEALDDLKSQRKKILEEVMEKETYKTAKLILERFDPDSKKAKECEPPSAGAAVTARPGQEIRQRTAAQRNLSPTPASPNQGPPPQVPVSPGPPKDSSAPGGPPERTVTPALSSNVLPRHLGSPATSVPGMGLHPPGPPLARPILPRERGALDRIVEYLVGDGPQNRYALICQQCFSHNGMALKEEFEYIAFRCAYCFFLNPARKTRPQAPRLPEFSFEKRQVVEGSSSVGPLPSGSVLSSDNQFNEESLEHDVLDDNTEQTDDKIPATEQTNQVIEKASDSEEPEEKQETENEEASVIETNSTVPGADSIPDPELSGESLTAE [chain 1 I25D, chain 1 L28D]	0.26
chain 1 MGGLFSRWRTKPSTVEVLESIDKEIQADEEFREKNQRLQKLWVGRLILYSSVLYLFTCLIVYLWYLPDEFTARLAMTLPFFAFPLIIWSIRTVIIFFFSKRTERNNEALDDLKSQRKKILEEVMEKETYKTAKLILERFDPDSKKAKECEPPSAGAAVTARPGQEIRQRTAAQRNLSPTPASPNQGPPPQVPVSPGPPKDSSAPGGPPERTVTPALSSNVLPRHLGSPATSVPGMGLHPPGPPLARPILPRERGALDRIVEYLVGDGPQNRYALICQQCFSHNGMALKEEFEYIAFRCAYCFFLNPARKTRPQAPRLPEFSFEKRQVVEGSSSVGPLPSGSVLSSDNQFNEESLEHDVLDDNTEQTDDKIPATEQTNQVIEKASDSEEPEEKQETENEEASVIETNSTVPGADSIPDPELSGESLTAE [chain 1 L28D]	0.34
chain 1 MGGLFSRWRTKPSTVEVLESIDKEDQALEEFREKNQRLQKLWVGRLILYSSVLYLFTCLIVYLWYLPDEFTARLAMTLPFFAFPLIIWSIRTVIIFFFSKRTERNNEALDDLKSQRKKILEEVMEKETYKTAKLILERFDPDSKKAKECEPPSAGAAVTARPGQEIRQRTAAQRNLSPTPASPNQGPPPQVPVSPGPPKDSSAPGGPPERTVTPALSSNVLPRHLGSPATSVPGMGLHPPGPPLARPILPRERGALDRIVEYLVGDGPQNRYALICQQCFSHNGMALKEEFEYIAFRCAYCFFLNPARKTRPQAPRLPEFSFEKRQVVEGSSSVGPLPSGSVLSSDNQFNEESLEHDVLDDNTEQTDDKIPATEQTNQVIEKASDSEEPEEKQETENEEASVIETNSTVPGADSIPDPELSGESLTAE [chain 1 I25D]	0.32
